Patent US20110123533A1

T1: CD133 (prominin) (human) (UniProt O43490)
T1 sequence (glycosylated (the AC133 epitope is known to be glycosylated), looked up): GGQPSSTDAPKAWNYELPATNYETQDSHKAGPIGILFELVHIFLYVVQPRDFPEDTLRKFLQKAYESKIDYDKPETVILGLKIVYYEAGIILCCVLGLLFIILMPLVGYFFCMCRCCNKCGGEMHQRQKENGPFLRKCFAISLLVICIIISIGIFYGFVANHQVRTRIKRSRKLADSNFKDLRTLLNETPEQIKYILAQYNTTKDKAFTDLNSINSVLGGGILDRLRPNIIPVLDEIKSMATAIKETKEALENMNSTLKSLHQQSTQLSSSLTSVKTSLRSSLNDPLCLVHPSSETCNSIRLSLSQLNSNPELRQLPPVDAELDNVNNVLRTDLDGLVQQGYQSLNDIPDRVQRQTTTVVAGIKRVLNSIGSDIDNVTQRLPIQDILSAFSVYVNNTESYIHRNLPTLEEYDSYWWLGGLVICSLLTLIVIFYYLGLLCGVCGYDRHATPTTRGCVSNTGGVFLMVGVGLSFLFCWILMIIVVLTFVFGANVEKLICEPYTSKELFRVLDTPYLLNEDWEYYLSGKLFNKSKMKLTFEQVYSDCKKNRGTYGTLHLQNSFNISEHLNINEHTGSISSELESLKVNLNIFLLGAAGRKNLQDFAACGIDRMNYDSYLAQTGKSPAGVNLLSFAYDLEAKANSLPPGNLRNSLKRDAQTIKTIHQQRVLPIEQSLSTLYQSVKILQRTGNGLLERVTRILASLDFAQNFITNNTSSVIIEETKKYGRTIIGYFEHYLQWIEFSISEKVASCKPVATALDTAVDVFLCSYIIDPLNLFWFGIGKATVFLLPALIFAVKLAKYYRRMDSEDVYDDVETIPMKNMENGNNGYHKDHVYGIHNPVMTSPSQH


Experiments:
CD133 (prominin) (human) [1] = biological target: T1, CD133 (prominin) (human); experiment: ELISA on membrane fraction of Caco-2 cells
CD133 (prominin) (human) [2] = biological target: T1, CD133 (prominin) (human); experiment: ELISA on plasma membrane fraction of Caco-2 cells; relative equilibrium constant
CD133 (prominin) (human) [3] = biological target: T1, CD133 (prominin) (human); experiment: ELISA on membrane fraction from Caco-2 cells

fold lower relative binding affinity than anti-CD133 monoclonal antibody (CD133 (prominin) (human) [1]) [fold] | Kd (CD133 (prominin) (human) [2]) [nM] | fold lower affinity than the monoclonal antibody from which the scFv was derived (CD133 (prominin) (human) [3]) [fold] | Molecule
2 | 155 | 3 | scFv-AC133
 | 83 |  | AC133 mouse monoclonal antibody purified from hybridoma (antibody, from another filing, V domains shown) VH: QVQLQQSGAELVRPGASVKLSCKASGYTFSDFEMHWVKQTPVHGLEWIGDIDPGTGDTAYNLKFKGKATLTTDKSSSTAYMELRSLTSEDSAVYYCTLGAFVYWGQGTLVTVSA VL: DVVVTQTPLSLPVSFGDQVSISCRSSQSLANSYGNTYLSWYLHKPGQSPQLLIYGISNRFSGVPDRFSGSGSGTDFTLKISTIKPEDLGMYYCLQGTHQPYTFGGGTKLEIKR
